{
  "source": "patent US20180009908",
  "key": {"[1]": {"experiment": "LCMS, IgG4 BsAb co-expression; HCB homodimer species"}, "[2]": {"experiment": "LCMS, IgG1 BsAb co-expression; HCB homodimer species"}, "[3]": {"conditions": "pertuzumab × matuzumab bispecific"}},
  "data": [
    {"protein": "BHA10 HC_7.8.60_B + BHA10 LC (IgG4 HC backbone) (protein) chain 1: QVQLVQSGAEVKKPGSSVKVSCKASGYTFTTYYLHWVRYAPGQGLEWMGWIYPGNVHAQYNEKFKGRVTITADKSTSTAYMELSSLRSEDTAVYYCARSWEGFPYWGRGTTVTVSSASTKGPSVFPLAPCSRSTSESTAALGCLVKDYFPEPVTVSWNSGALTSGVHTFPAVLQSSGLYSLSSVVTVPSSSLGTKTYTCNVDHKPSNTKVDKRVESDYGPPCPPCPAPEAAGGPSVFLFPPKPKDTLMISRTPEVTCVVVDVSQEDPEVQFNWYVDGVEVHNAKTKPREEQFQSTYRVVSVLTVLHQDWLNGKEYKCKVSNKGLPSSIEKTISKAKGQPRRPRVYTLPPSQEEMTKNQVSLVCLVKGFYPSDIAVEWESNGQPENNYKTTPPVLDSDGSFFLYSVLTVDKSRWQEGNVFSCSVMHEALHNHYTQKSLSLSLG chain 2: DIQMTQSPSSLSASVGDRVTITCKASQNVGINVAWYQRKPGDAPKSLISSASYRYSGVPSRFSGSGSGTDFTLTISSLQPEDFATYFCQQYDTYPFTFGQGTKVEIKRTVAAPSVFIFPPSKEQLKSGTASVVCLLNNFYPREAKVQWKVDNALQSGNSQESVTEQDSKDSTYSLSSTLTLSKADYEKHKVYACEVTHQGLSSPVTKSFNRGEC", "values": [
      {"measurement": "% BB Homodimer (incorrect assembly)", "setting": "[1]", "value": 4.2, "unit": "%"}
    ]},
    {"protein": "BHA10 HC_20.8_B + BHA10 LC (IgG1) (protein) chain 1: QVQLVQSGAEVKKPGSSVKVSCKASGYTFTTYYLHWVRYAPGQGLEWMGWIYPGNVHAQYNEKFKGRVTITADKSTSTAYMELSSLRSEDTAVYYCARSWEGFPYWGRGTTVTVSSASTKGPSVFPLAPCSKSTSGGTAALGCLVKDYFPEPVTVSWNSGALTSGVHTFPAVLQSSGLYSLSSVVTVPSSSLGTQTYICNVNHKPSNTKVDKKVEPDSGDKTHTCPPCPAPELLGGPSVFLFPPKPKDTLMISRTPEVTCVVVDVSHEDPEVKFNWYVDGVEVHNAKTKPREEQYNSTYRVVSVLTVLHQDWLNGKEYKCKVSNKALPAPIEKTISKAKGQPREPQVYTLPPSREDMTKNQVQLTCLVKGFYPSDIAVEWESNGQPENNYKTTPPVLDSDGSFFLASKLTVDKSRWQQGNVFSCSVMHEALHNHYTQKSLSLSPGK chain 2: DIQMTQSPSSLSASVGDRVTITCKASQNVGINVAWYQRKPGDAPKSLISSASYRYSGVPSRFSGSGSGTDFTLTISSLQPEDFATYFCQQYDTYPFTFGQGTKVEIKRTVAAPSVFIFPPSKEQLKSGTASVVCLLNNFYPREAKVQWKVDNALQSGNSQESVTEQDSKDSTYSLSSTLTLSKADYEKHKVYACEVTHQGLSSPVTKSFNRGEC", "values": [
      {"measurement": "% BB Homodimer (incorrect assembly)", "setting": "[2]", "value": 0, "unit": "%"}
    ]},
    {"protein": "BHA10 HC_20.8.34_B + BHA10 LC (IgG4 HC backbone) (protein) chain 1: QVQLVQSGAEVKKPGSSVKVSCKASGYTFTTYYLHWVRYAPGQGLEWMGWIYPGNVHAQYNEKFKGRVTITADKSTSTAYMELSSLRSEDTAVYYCARSWEGFPYWGRGTTVTVSSASTKGPSVFPLAPCSRSTSESTAALGCLVKDYFPEPVTVSWNSGALTSGVHTFPAVLQSSGLYSLSSVVTVPSSSLGTKTYTCNVDHKPSNTKVDKRVESDYGPPCPPCPAPEAAGGPSVFLFPPKPKDTLMISRTPEVTCVVVDVSQEDPEVQFNWYVDGVEVHNAKTKPREEQFQSTYRVVSVLTVLHQDWLNGKEYKCKVSNKGLPSSIEKTISKAKGQPREPQVYTLPPSQGDMTKNQVQLTCLVKGFYPSDIAVEWESNGQPENNYKTTPPVLDSDGSFFLASRLTVDKSRWQEGNVFSCSVMHEALHNHYTQKSLSLSLG chain 2: DIQMTQSPSSLSASVGDRVTITCKASQNVGINVAWYQRKPGDAPKSLISSASYRYSGVPSRFSGSGSGTDFTLTISSLQPEDFATYFCQQYDTYPFTFGQGTKVEIKRTVAAPSVFIFPPSKEQLKSGTASVVCLLNNFYPREAKVQWKVDNALQSGNSQESVTEQDSKDSTYSLSSTLTLSKADYEKHKVYACEVTHQGLSSPVTKSFNRGEC", "values": [
      {"measurement": "% BB Homodimer (incorrect assembly)", "setting": "[1]", "value": 0, "unit": "%"}
    ]},
    {"protein": "BHA10 HC_7.8.60_B + BHA10 LC (IgG1) (protein) chain 1: QVQLVQSGAEVKKPGSSVKVSCKASGYTFTTYYLHWVRYAPGQGLEWMGWIYPGNVHAQYNEKFKGRVTITADKSTSTAYMELSSLRSEDTAVYYCARSWEGFPYWGRGTTVTVSSASTKGPSVFPLAPCSKSTSGGTAALGCLVKDYFPEPVTVSWNSGALTSGVHTFPAVLQSSGLYSLSSVVTVPSSSLGTQTYICNVNHKPSNTKVDKKVEPDSGDKTHTCPPCPAPELLGGPSVFLFPPKPKDTLMISRTPEVTCVVVDVSHEDPEVKFNWYVDGVEVHNAKTKPREEQYNSTYRVVSVLTVLHQDWLNGKEYKCKVSNKALPAPIEKTISKAKGQPRRPRVYTLPPSREEMTKNQVSLVCLVKGFYPSDIAVEWESNGQPENNYKTTPPVLDSDGSFFLYSVLTVDKSRWQQGNVFSCSVMHEALHNHYTQKSLSLSPGK chain 2: DIQMTQSPSSLSASVGDRVTITCKASQNVGINVAWYQRKPGDAPKSLISSASYRYSGVPSRFSGSGSGTDFTLTISSLQPEDFATYFCQQYDTYPFTFGQGTKVEIKRTVAAPSVFIFPPSKEQLKSGTASVVCLLNNFYPREAKVQWKVDNALQSGNSQESVTEQDSKDSTYSLSSTLTLSKADYEKHKVYACEVTHQGLSSPVTKSFNRGEC", "values": [
      {"measurement": "% BB Homodimer (incorrect assembly)", "setting": "[2]", "value": 1.6, "unit": "%"}
    ]},
    {"protein": "BHA10 HC_20.8.37_B + BHA10 LC (IgG1) (protein) chain 1: QVQLVQSGAEVKKPGSSVKVSCKASGYTFTTYYLHWVRYAPGQGLEWMGWIYPGNVHAQYNEKFKGRVTITADKSTSTAYMELSSLRSEDTAVYYCARSWEGFPYWGRGTTVTVSSASTKGPSVFPLAPCSKSTSGGTAALGCLVKDYFPEPVTVSWNSGALTSGVHTFPAVLQSSGLYSLSSVVTVPSSSLGTQTYICNVNHKPSNTKVDKKVEPDSGDKTHTCPPCPAPELLGGPSVFLFPPKPKDTLMISRTPEVTCVVVDVSHEDPEVKFNWYVDGVEVHNAKTKPREEQYNSTYRVVSVLTVLHQDWLNGKEYKCKVSNKALPAPIEKTISKAKGQPREPQVYTLPPSREDMTKNQVRLTCLVKGFYPSDIAVEWESNGQPENNYKTTPPVLDSDGSFFLASKLTVDKSRWQQGNVFSCSVMHEALHNHYTQKSLSLSPGK chain 2: DIQMTQSPSSLSASVGDRVTITCKASQNVGINVAWYQRKPGDAPKSLISSASYRYSGVPSRFSGSGSGTDFTLTISSLQPEDFATYFCQQYDTYPFTFGQGTKVEIKRTVAAPSVFIFPPSKEQLKSGTASVVCLLNNFYPREAKVQWKVDNALQSGNSQESVTEQDSKDSTYSLSSTLTLSKADYEKHKVYACEVTHQGLSSPVTKSFNRGEC", "values": [
      {"measurement": "% BB Homodimer (incorrect assembly)", "setting": "[2]", "value": 0, "unit": "%"}
    ]},
    {"protein": "BHA10 HC_20.8.34_B + BHA10 LC (IgG1) (protein) chain 1: QVQLVQSGAEVKKPGSSVKVSCKASGYTFTTYYLHWVRYAPGQGLEWMGWIYPGNVHAQYNEKFKGRVTITADKSTSTAYMELSSLRSEDTAVYYCARSWEGFPYWGRGTTVTVSSASTKGPSVFPLAPCSKSTSGGTAALGCLVKDYFPEPVTVSWNSGALTSGVHTFPAVLQSSGLYSLSSVVTVPSSSLGTQTYICNVNHKPSNTKVDKKVEPDSGDKTHTCPPCPAPELLGGPSVFLFPPKPKDTLMISRTPEVTCVVVDVSHEDPEVKFNWYVDGVEVHNAKTKPREEQYNSTYRVVSVLTVLHQDWLNGKEYKCKVSNKALPAPIEKTISKAKGQPREPQVYTLPPSRGDMTKNQVQLTCLVKGFYPSDIAVEWESNGQPENNYKTTPPVLDSDGSFFLASKLTVDKSRWQQGNVFSCSVMHEALHNHYTQKSLSLSPGK chain 2: DIQMTQSPSSLSASVGDRVTITCKASQNVGINVAWYQRKPGDAPKSLISSASYRYSGVPSRFSGSGSGTDFTLTISSLQPEDFATYFCQQYDTYPFTFGQGTKVEIKRTVAAPSVFIFPPSKEQLKSGTASVVCLLNNFYPREAKVQWKVDNALQSGNSQESVTEQDSKDSTYSLSSTLTLSKADYEKHKVYACEVTHQGLSSPVTKSFNRGEC", "values": [
      {"measurement": "% BB Homodimer (incorrect assembly)", "setting": "[2]", "value": 0, "unit": "%"}
    ]},
    {"protein": "matuzumab HC_20.8.34_B + matuzumab LC (IgG1) (protein) chain 1: QVQLVQSGAEVKKPGASVKVSCKASGYTFTSHWMHWVRYAPGQGLEWIGEFNPSNGRTNYNEKFKSKATMTVDTSTNTAYMELSSLRSEDTAVYYCASRDYDYDGRYFDYWGRGTLVTVSSASTKGPSVFPLAPCSKSTSGGTAALGCLVKDYFPEPVTVSWNSGALTSGVHTFPAVLQSSGLYSLSSVVTVPSSSLGTQTYICNVNHKPSNTKVDKKVEPDSGDKTHTCPPCPAPELLGGPSVFLFPPKPKDTLMISRTPEVTCVVVDVSHEDPEVKFNWYVDGVEVHNAKTKPREEQYNSTYRVVSVLTVLHQDWLNGKEYKCKVSNKALPAPIEKTISKAKGQPREPQVYTLPPSRGDMTKNQVQLTCLVKGFYPSDIAVEWESNGQPENNYKTTPPVLDSDGSFFLASKLTVDKSRWQQGNVFSCSVMHEALHNHYTQKSLSLSPGK chain 2: DIQMTQSPSSLSASVGDRVTITCSASSSVTYMYWYQRKPGDAPKLLIYDTSNLASGVPSRFSGSGSGTDYTFTISSLQPEDIATYYCQQWSSHIFTFGQGTKVEIKRTVAAPSVFIFPPSKEQLKSGTASVVCLLNNFYPREAKVQWKVDNALQSGNSQESVTEQDSKDSTYSLSSTLTLSKADYEKHKVYACEVTHQGLSSPVTKSFNRGEC", "values": [
      {"measurement": "% BB Homodimer (incorrect assembly)", "setting": "[2]; MetMAb × matuzumab bispecific", "value": 0, "unit": "%"},
      {"measurement": "% BB Homodimer (incorrect assembly)", "setting": "[2]; [3]", "value": 1.6, "unit": "%"}
    ]},
    {"protein": "matuzumab HC_20.8.37_B + matuzumab LC (IgG1) (protein) chain 1: QVQLVQSGAEVKKPGASVKVSCKASGYTFTSHWMHWVRYAPGQGLEWIGEFNPSNGRTNYNEKFKSKATMTVDTSTNTAYMELSSLRSEDTAVYYCASRDYDYDGRYFDYWGRGTLVTVSSASTKGPSVFPLAPCSKSTSGGTAALGCLVKDYFPEPVTVSWNSGALTSGVHTFPAVLQSSGLYSLSSVVTVPSSSLGTQTYICNVNHKPSNTKVDKKVEPDSGDKTHTCPPCPAPELLGGPSVFLFPPKPKDTLMISRTPEVTCVVVDVSHEDPEVKFNWYVDGVEVHNAKTKPREEQYNSTYRVVSVLTVLHQDWLNGKEYKCKVSNKALPAPIEKTISKAKGQPREPQVYTLPPSREDMTKNQVRLTCLVKGFYPSDIAVEWESNGQPENNYKTTPPVLDSDGSFFLASKLTVDKSRWQQGNVFSCSVMHEALHNHYTQKSLSLSPGK chain 2: DIQMTQSPSSLSASVGDRVTITCSASSSVTYMYWYQRKPGDAPKLLIYDTSNLASGVPSRFSGSGSGTDYTFTISSLQPEDIATYYCQQWSSHIFTFGQGTKVEIKRTVAAPSVFIFPPSKEQLKSGTASVVCLLNNFYPREAKVQWKVDNALQSGNSQESVTEQDSKDSTYSLSSTLTLSKADYEKHKVYACEVTHQGLSSPVTKSFNRGEC", "values": [
      {"measurement": "% BB Homodimer (incorrect assembly)", "setting": "[2]; MetMAb × matuzumab bispecific", "value": 0, "unit": "%"},
      {"measurement": "% BB Homodimer (incorrect assembly)", "setting": "[2]; [3]", "value": 0.5, "unit": "%"}
    ]},
    {"protein": "matuzumab HC_7.8.60_B + matuzumab LC (IgG1) (protein) chain 1: QVQLVQSGAEVKKPGASVKVSCKASGYTFTSHWMHWVRYAPGQGLEWIGEFNPSNGRTNYNEKFKSKATMTVDTSTNTAYMELSSLRSEDTAVYYCASRDYDYDGRYFDYWGRGTLVTVSSASTKGPSVFPLAPCSKSTSGGTAALGCLVKDYFPEPVTVSWNSGALTSGVHTFPAVLQSSGLYSLSSVVTVPSSSLGTQTYICNVNHKPSNTKVDKKVEPDSGDKTHTCPPCPAPELLGGPSVFLFPPKPKDTLMISRTPEVTCVVVDVSHEDPEVKFNWYVDGVEVHNAKTKPREEQYNSTYRVVSVLTVLHQDWLNGKEYKCKVSNKALPAPIEKTISKAKGQPRRPRVYTLPPSREEMTKNQVSLVCLVKGFYPSDIAVEWESNGQPENNYKTTPPVLDSDGSFFLYSVLTVDKSRWQQGNVFSCSVMHEALHNHYTQKSLSLSPGK chain 2: DIQMTQSPSSLSASVGDRVTITCSASSSVTYMYWYQRKPGDAPKLLIYDTSNLASGVPSRFSGSGSGTDYTFTISSLQPEDIATYYCQQWSSHIFTFGQGTKVEIKRTVAAPSVFIFPPSKEQLKSGTASVVCLLNNFYPREAKVQWKVDNALQSGNSQESVTEQDSKDSTYSLSSTLTLSKADYEKHKVYACEVTHQGLSSPVTKSFNRGEC", "values": [
      {"measurement": "% BB Homodimer (incorrect assembly)", "setting": "[2]", "value": 1.3, "unit": "%"}
    ]}
  ]
}
